Measurements as given in patent US20220411492A1 (QILU PHARMACEUTICAL, published 2022).
Where two headings read alike, the source gives them in different places.

How the values were obtained:
[1] = molecular target: T1, human Claudin 18.2 (hCLDN18.2) (human, UniProt P56856-2 1-261); assay: cell-based or functional assay
[2] = molecular target: T1, human Claudin 18.2 (hCLDN18.2); assay: cell-based or functional assay; remark: listed apart in the source
[3] = molecular target: T1, human Claudin 18.2 (hCLDN18.2); assay: FACS, HEK293-hCLDN18.2 cells
[4] = molecular target: murine CLDN18.2 (mCLDN18.2) (murine) (UniProt P56857); assay: FACS, HEK293-mCLDN18.2 cells
[5] = molecular target: T1, human Claudin 18.2 (hCLDN18.2); assay: FACS, HEK293-hCLDN18.2 cells; remark: listed apart in the source
[6] = molecular target: T1, human Claudin 18.2 (hCLDN18.2); assay: FACS, HEK293-hCLDN18.2 cells; remark: listed apart in the source
[7] = molecular target: murine CLDN18.2 (mCLDN18.2) (murine) (UniProt P56857); assay: FACS, HEK293-mCLDN18.2 cells; remark: listed apart in the source
[8] = molecular target: T1, human Claudin 18.2 (hCLDN18.2); assay: FACS, PDX-hCLDN18.2 gastric cancer tumor tissue-derived cells
[9] = molecular target: T1, human Claudin 18.2 (hCLDN18.2); assay: as above; remark: listed apart in the source

Molecule: chimeric antibody ch-175D10 from patent CN103509110B
- ADCC EC50 [1]: 0.021 µg/mL
- ADCC Maximum lysis (%) [1]: 31.8%
- CDC EC50 [1]: 1.19 µg/mL
- CDC Maximum lysis (%) [1]: 87.4%
- CDC EC50 [2]: 1.55 µg/mL
- CDC Maximum lysis (%) [2]: 87.8%
- EC50 [3]: 0.881 nM
- Mean maximum fluorescence intensity (Top MFI) [3]: 5450 MFI
- EC50 [4]: 1.01 nM
- Mean maximum fluorescence intensity (Top MFI) [4]: 4190 MFI
- EC50 [5]: 0.156 µg/mL
- Mean maximum fluorescence intensity (Top MFI) [5]: 2840 MFI
- Mean maximum fluorescence intensity (Top MFI) [6]: 26900 MFI
- EC50 [7]: 0.136 µg/mL
- Mean maximum fluorescence intensity (Top MFI) [7]: 86400 MFI
- EC50 [8]: 63.9 nM
- Mean maximum fluorescence intensity (Top MFI) [8]: 7160 MFI
- EC50 [9]: 24.9 nM
- Mean maximum fluorescence intensity (Top MFI) [9]: 5700 MFI

B1: hu253C4-N31Q-3 (antibody, V domains shown)
VH: QVQLVQSGAEVKKPGASVKVSCKTSGYIFTSYWIHWVRQAPGQGLEWMGRFYPGTGTAYYNENFEGRVTLTADTSISTAYMELSRLRSDDTAVYYCTREGYGKGNSMDYWGQGTTVTVSS
VL: DIVMTQSPDSLAVSLGERATINCKSSQSLLQSGNQKNYLTWYQQKPGQPPKLLIYWASTRESGVPDRFSGSGSGTDFTLTISSLQAEDVAVYYCQNDYYFPFTFGGGTKLEIK
- ADCC EC50 [2]: 0.038 µg/mL
- ADCC Maximum lysis (%) [2]: 70.3%
- CDC EC50 [2]: 0.128 µg/mL
- CDC Maximum lysis (%) [2]: 96.1%
- EC50 [4]: 0.03 µg/mL
- Mean maximum fluorescence intensity (Top MFI) [4]: 42100 MFI
- EC50 [6]: 0.145 nM
- Mean maximum fluorescence intensity (Top MFI) [6]: 18800 MFI
- EC50 [9]: 25.6 nM
- Mean maximum fluorescence intensity (Top MFI) [9]: 21600 MFI
